These results are taken from US5811298, “Rep-max protein having anti-oncogenic activity and uses thereof” (Albert Einstein College of Medicine of Yeshiva University, …, dated 1998).

B1: mouse Mxi-WR protein (other)
chain: MPSPRLQHSKPPRRLSRAQKHSSGSSNTSTANRSTHNELEKNRRAHLRLCLKRLKVLIPLGPDCTRHTTLGLLNKAKAHIKKLEEAERKSQHQLENLEREQRFLKRRLEQLQGPQEMERIRMDSIGSTISSDRSDSEREEIEVDVESTEFSHGKADSVSTTSISDLDDHSSLQSVGSDEGYSSASVKLSFAS
B2: mouse Mxi-Δrep (other)
chain: MERFPSMPSPRLQHSKPPRRLSRAQKHSSGSSNTSTANRSTHNELEKNRRAHLRLCLKRLKVLIPLGPDCTRHTTLGLLNKAKAHIKKLEEAERKSQHQLENLEREQRFLKRRLEQLQGPQEMERIRMDSIGSTISSDRSDSEREEIEVDVESTEFSHGKADSVSTTSISDLDDHSSLQSVGSDEGYSSASVKLSFAS
B3: mouse Mxi-SR protein (other)
chain: MERVRMINVQRLLEAAEFLERRERECEHGYASSFPSMPSPRLQHSKPPRRLSRAQKHSSGSSNTSTANRSTHNELEKNRRAHLRLCLKRLKVLIPLGPDCTRHTTLGLLNKAKAHIKKLEEAERKSQHQLENLEREQRFLKRRLEQLQGPQEMERIRMDSIGSTISSDRSDSEREEIEVDVESTEFSHGKADSVSTTSISDLDDHSSLQSVGSDEGYSSASVKLSFAS
B4: human MXI protein (other)
chain: MERVKMINVQRLLEAAEFLERRERECEHGYASSFPSMPSPRLQHSKPPRRLSRAQKHSSGSSNTSTANRSTHNELEKNRRAHLRLCLKRLKVLIPLGPDCTRHTTLGLLNKAKAHIKKLEEAERKSQHQLENLEREQRFLKWRLEQLQGPQEMERIRMDSIGSTISSDRSDSEREEIEVDVESTEFSHGKVDNISTTSISDIDDHSSLPSIGSDEGYSSASVKLSFTS
B5: mouse Mxi-SR-pro (other)
chain: MERVRMINVQRLLEAAEFPERRERECEHGYASSFPSMPSPRLQHSKPPRRLSRAQKHSSGSSNTSTANRSTHNELEKNRRAHLRLCLKRLKVLIPLGPDCTRHTTLGLLNKAKAHIKKLEEAERKSQHQLENLEREQRFLKRRLEQLQGPQEMERIRMDSIGSTISSDRSDSEREEIEVDVESTEFSHGKADSVSTTSISDLDDHSSLQSVGSDEGYSSASVKLSFAS

The target in this test is mouse c-Myc (mouse, UniProt P01108-2). The test can be described thus: cell-based or functional assay.
Regarding B1, the “fold suppression of c-myc/RAS foci formation, REF cooperation assay” value came to 1.74 fold suppression.

On to B2, for which the “fold suppression of c-myc/RAS foci formation, REF cooperation assay” value was 1.57 fold suppression. Consider B3, for which the “fold suppression of c-myc/RAS foci formation, REF cooperation assay” value is 8.1 fold suppression. In the case of B4, the “fold suppression of c-myc/RAS foci formation, REF cooperation assay” value stood at 5.3 fold suppression.

As to B5, the “fold suppression of c-myc/RAS foci formation, REF cooperation assay” value turned out to be 1.78 fold suppression.
